Columns and labels:
[1] = target: clone 3 of FIG. 6 envelope protein (clone 11 of FIGS. 7-9), with L261S (HIV-1); assay: cell-based or functional assay
[2] = target: clone 3 of FIG. 6 envelope protein with the wild-type residue at position 261 (HIV-1); assay: cell-based or functional assay
[3] = test system: HIV-1 particles pseudotyped with patient-derived or chimeric envelope proteins (gp160); assay: Cell based HIV-1 entry assay (pseudotyped virus, luciferase): entry inhibitor susceptibility; conditions: FIG. 6; compared with sensitivity to B4
Protocol: In this embodiment, drug susceptibility, co-receptor tropism and virus neutralization testing are performed by co-transfecting a host cell with pHIVenv and pHIVlucΔU3. The host cell produces HIV particles that are pseudo-typed with HIV envelope sequences derived from the test virus or subject sample. Virus particles are collected (˜48 h) after transfection and are used to infect target cells that express HIV receptors (e.g. CD4) and co-receptors (e.g. CXCR4, CCR5). After infection (˜72 h) the target cells are lysed and luciferase activity is measured. HIV must complete one round of replication to successfully infect the target host cell and produce luciferase activity. […]
Drug susceptibility testing was performed using pHIVenv and pHIVluc or pHIVlucΔU3. […] After infection (˜72 h) the target cells are lysed and luciferase activity is measured. […] The amount of luciferase activity detected in the infected cells is used as a direct measure of “infectivity” (FIGS. 1 and 2). […] Drug susceptibility is assessed by comparing the infectivity in the absence of drug to infectivity in the presence of drug. Relative drug susceptibility can be quantified by comparing the susceptibility of the “test” virus to the susceptibility of a well-characterized reference virus (wildtype) derived from a molecular clone of HIV-1, for example NL4-3 or HXB2. […]

Row | Substance | IC50 of PRO542, log-sigmoid inhibition curves of the entry assay [1] [µg/ml] | IC50 of PRO542, log-sigmoid inhibition curves of the entry assay [2] [µg/ml] | sensitivity to entry inhibitor, sixteen clones of one patient [3]
1 | PRO542 (from UniProt P01730 26-204) (receptor) | 11 | 0.9 | 
2 | TNX-355: HIV entry inhibitor under investigation (Tanox Inc.), listed as CD4 binding site entry inhibitor |  |  | varied inversely to sensitivity to B4

From patent US11499200B2, “Methods for determining resistance or susceptibility to HIV entry inhibitors” (Monogram Biosciences, Inc., priority 2005, dated 2022)
